According to PMC5414179, “Functional characterization of a multi-cancer risk locus on chr5p15.33 reveals regulation of TERT by ZNF148”:

Biological target: T1, ZNF148 (ZBP-89), recombinant (Homo sapiens, UniProt Q9UQR1 1-794)
T1 sequence: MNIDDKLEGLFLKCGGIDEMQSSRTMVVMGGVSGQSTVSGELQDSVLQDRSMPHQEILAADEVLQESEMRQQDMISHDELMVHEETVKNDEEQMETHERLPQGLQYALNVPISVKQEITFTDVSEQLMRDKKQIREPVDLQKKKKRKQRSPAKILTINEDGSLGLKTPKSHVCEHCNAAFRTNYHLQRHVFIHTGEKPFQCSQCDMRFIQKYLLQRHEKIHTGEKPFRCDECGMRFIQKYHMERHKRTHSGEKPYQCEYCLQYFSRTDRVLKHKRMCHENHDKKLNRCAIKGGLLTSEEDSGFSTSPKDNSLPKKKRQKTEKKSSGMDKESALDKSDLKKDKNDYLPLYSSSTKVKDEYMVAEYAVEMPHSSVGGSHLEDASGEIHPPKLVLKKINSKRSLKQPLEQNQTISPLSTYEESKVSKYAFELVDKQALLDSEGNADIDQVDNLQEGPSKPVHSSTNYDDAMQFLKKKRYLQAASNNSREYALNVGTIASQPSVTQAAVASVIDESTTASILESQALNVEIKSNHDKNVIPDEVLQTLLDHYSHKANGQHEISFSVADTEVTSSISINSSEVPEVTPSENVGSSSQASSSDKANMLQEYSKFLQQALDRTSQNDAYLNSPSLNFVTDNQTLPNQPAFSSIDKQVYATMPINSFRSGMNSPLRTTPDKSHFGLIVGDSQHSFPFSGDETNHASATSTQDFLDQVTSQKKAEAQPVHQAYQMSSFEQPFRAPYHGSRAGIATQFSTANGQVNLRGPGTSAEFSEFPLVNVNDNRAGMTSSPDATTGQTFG
Assay: EMSA; positive control; EMSA: 10 ug nuclear extract or 90-630 ng recombinant ZNF148 with 3'-biotin probe, 20 min on ice, 4-20% TBE gel; antibody preincubation 20 min at room temperature; buffer, salt and pH not stated
Conditions: protein: commercial; label: 3' biotin; blunt

B1: ZNF148 binding motif, CDKN1A/p21 promoter (dsDNA)
DNA 1: CGCAGGCGAGGGACTGGGGGAGGAGGGAAGTGCCC
DNA 2: GGGCACTTCCCTCCTCCCCCAGTCCCTCGCCTGCG
  binding result: binds
